B1: Cep192 C-terminus fragment (2070-2537 aa), GFP-tagged (domain or fragment, UniProt Q8TEP8-3 2070-2537, looked up)
chain: REFLQPSSKASLESTSDLGASGKHGGNVSLDVLPVKGPQGSPLLSRAARPPLDQLASEEPWTVLPEHLILVAPSPCDMAKTGRFQIVNNSVRLLRFELCWPAHCLTVTPQHGCVAPESKLQILVSPNSSLSTKQSMFPWSGLIYIHCDDGQKKIVKVQIREDLTQVELLTRLTSKPFGILSPVSEPSVSHLVKPMTKPPSTKVEIRNKSITFPTTEPGETSESCLELENHGTTDVKWHLSSLAPPYVKGVDESGDVFRATYAAFRCSPISGLLESHGIQKVSITFLPRGRGDYAQFWDVECHPLKEPHMKHTLRFQLSGQSIEAENEPENACLSTDSLIKIDHLVKPRRQAVSEASARIPEQLDVTARGVYAPEDVYRFRPTSVGESRTLKVNLRNNSFITHSLKFLSPREPFYVKHSKYSLRAQHYINMPVQFKPKSAGKFEALLVIQTDEGKSIAIRLIGEALGKN
notes: Cep192 residues 2070-2537 (ASH6, ASH7, ASH8 and the IDRs between them); also called C-terminal Cep192; Cep192 C-terminal fragment; source: purified (Ni-NTA, gel filtration)
B2: TRIM37 (enzyme, UniProt O94972 1-964, looked up)
chain: MDEQSVESIAEVFRCFICMEKLRDARLCPHCSKLCCFSCIRRWLTEQRAQCPHCRAPLQLRELVNCRWAEEVTQQLDTLQLCSLTKHEENEKDKCENHHEKLSVFCWTCKKCICHQCALWGGMHGGHTFKPLAEIYEQHVTKVNEEVAKLRRRLMELISLVQEVERNVEAVRNAKDERVREIRNAVEMMIARLDTQLKNKLITLMGQKTSLTQETELLESLLQEVEHQLRSCSKSELISKSSEILMMFQQVHRKPMASFVTTPVPPDFTSELVPSYDSATFVLENFSTLRQRADPVYSPPLQVSGLCWRLKVYPDGNGVVRGYYLSVFLELSAGLPETSKYEYRVEMVHQSCNDPTKNIIREFASDFEVGECWGYNRFFRLDLLANEGYLNPQNDTVILRFQVRSPTFFQKSRDQHWYITQLEAAQTSYIQQINNLKERLTIELSRTQKSRDLSPPDNHLSPQNDDALETRAKKSACSDMLLEGGPTTASVREAKEDEEDEEKIQNEDYHHELSDGDLDLDLVYEDEVNQLDGSSSSASSTATSNTEENDIDEETMSGENDVEYNNMELEEGELMEDAAAAGPAGSSHGYVGSSSRISRRTHLCSAATSSLLDIDPLILIHLLDLKDRSSIENLWGLQPRPPASLLQPTASYSRKDKDQRKQQAMWRVPSDLKMLKRLKTQMAEVRCMKTDVKNTLSEIKSSSAASGDMQTSLFSADQAALAACGTENSGRLQDLGMELLAKSSVANCYIRNSTNKKSNSPKPARSSVAGSLSLRRAVDPGENSRSKGDCQTLSEGSPGSSQSGSRHSSPRALIHGSIGDILPKTEDRQCKALDSDAVVVAVFSGLPAVEKRRKMVTLGANAKGGHLEGLQMTDLENNSETGELQPVLPEGASAAPEEGMSSDSDIECDTENEEQEEHTSVGGFHDSFMVMTQPPDEDTHSSFPDGEQIGPEDLSFNTDENSGR
notes: TRIM37, E3 ubiquitin ligase; 459-964; The co-immunoprecipitation methods say only 'TRIM37 (1 ug)', the same amount as the Abcam protein of the ubiquitination assay; also called purified TRIM37; source: bought: Abcam ab269066
B3: TRIM37(C18R) (enzyme, UniProt O94972 1-964, looked up)
chain: B2 chain with C18R
notes: TRIM37 with C18R; cross-links are reported from the N-terminus (a.a. 1-458) and the tail (a.a. 459-964); source: purified

For series [1], the target named is Centrobin peptide motif (Homo sapiens) (UniProt Q8N137). The conditions noted are these: cited from earlier work.
The next series deals with GFP-Cep192(IDR+ASH8). Nature of the series: pull-down; supernatant depletion: 30 nM TRIM37 with a range of GFP-Cep192(IDR+ASH8) concentrations and GFP-Trap magnetic particles, 25 mM HEPES pH 7.4, 150 mM KCl, 1 mM DTT, 1 hr at room temperature; unbound TRIM37 in the supernatant by Western blot; one phase association fit.
The target in the series “TRIM37” is B2. The series is described as follows: pull-down; purified GFP fusion (1 uM) incubated with TRIM37 (1 ug) 1 hr at 37°C, precipitated with GFP-Trap magnetic particles; washes 150 mM KCl, 25 mM HEPES, 1% glycerol, 0.05% NP-40, last wash 500 mM KCl; Western blot against TRIM37. Particulars: both partners purified. On the technique in general: Immunoblotting shows a protein as a band on a membrane.

The target of series [2] is T1, full-length Cep192 tagged with GFP (UniProt Q8TEP8-3 1-2537).
T1 construct: Cep192, full length (2537 aa by the printed range 2070-2537); MW with GFP = 307 kDa; also called GFP-Cep192; source: baculovirus-infected SF9 insect cells, purified (Ni-NTA, gel filtration)
The series is described as above. Particulars: both partners purified.

Series [3] concerns the molecule itself. The series is described as follows: cross-linking; XL-MS: 5 uM TRIM37(C18R) and 5 uM IDR+ASH8, 100 nM ZnCl2, 25 mM HEPES, 150 mM KCl pH 7.4, 20 min at 37°C, 1 mM DSSO 5 min; band of the complex cut from SDS-PAGE; calculated FDR <1%.

We go through five molecules from publication doi:10.64898/2025.12.19.695442, “TRIM37 recognizes a bipartite degron to ubiquitinate centrosome substrates” (bioRxiv, 2025).

Numbering of substitutions follows the chain as printed. Names may count otherwise.

One may read the Kd as the equilibrium constant for the complex coming apart.

Regarding TRIM37 MATH (from UniProt O94972), the dissociation constant (Kd) in series [1] was 14 µM.
Molecule TRIM37 (from UniProt O94972 1-964) displayed a Kd in the series with GFP-Cep192(IDR+ASH8) of 0.075 µM.
In the case of B1, the binding result with TRIM37 was “binds”.
Take B2: the binding result in series [2] is on record as “binds”.
For B3, the binding result in series [3] is reported as “binds”.
